The assay deals with von Willebrand factor (human, UniProt P04275 764-2813). As to the kind of experiment: ELISA. For orientation: In an ELISA, binding on a coated surface is turned into a signal by an enzyme label.
Sequence of von Willebrand factor (P04275 764-2813): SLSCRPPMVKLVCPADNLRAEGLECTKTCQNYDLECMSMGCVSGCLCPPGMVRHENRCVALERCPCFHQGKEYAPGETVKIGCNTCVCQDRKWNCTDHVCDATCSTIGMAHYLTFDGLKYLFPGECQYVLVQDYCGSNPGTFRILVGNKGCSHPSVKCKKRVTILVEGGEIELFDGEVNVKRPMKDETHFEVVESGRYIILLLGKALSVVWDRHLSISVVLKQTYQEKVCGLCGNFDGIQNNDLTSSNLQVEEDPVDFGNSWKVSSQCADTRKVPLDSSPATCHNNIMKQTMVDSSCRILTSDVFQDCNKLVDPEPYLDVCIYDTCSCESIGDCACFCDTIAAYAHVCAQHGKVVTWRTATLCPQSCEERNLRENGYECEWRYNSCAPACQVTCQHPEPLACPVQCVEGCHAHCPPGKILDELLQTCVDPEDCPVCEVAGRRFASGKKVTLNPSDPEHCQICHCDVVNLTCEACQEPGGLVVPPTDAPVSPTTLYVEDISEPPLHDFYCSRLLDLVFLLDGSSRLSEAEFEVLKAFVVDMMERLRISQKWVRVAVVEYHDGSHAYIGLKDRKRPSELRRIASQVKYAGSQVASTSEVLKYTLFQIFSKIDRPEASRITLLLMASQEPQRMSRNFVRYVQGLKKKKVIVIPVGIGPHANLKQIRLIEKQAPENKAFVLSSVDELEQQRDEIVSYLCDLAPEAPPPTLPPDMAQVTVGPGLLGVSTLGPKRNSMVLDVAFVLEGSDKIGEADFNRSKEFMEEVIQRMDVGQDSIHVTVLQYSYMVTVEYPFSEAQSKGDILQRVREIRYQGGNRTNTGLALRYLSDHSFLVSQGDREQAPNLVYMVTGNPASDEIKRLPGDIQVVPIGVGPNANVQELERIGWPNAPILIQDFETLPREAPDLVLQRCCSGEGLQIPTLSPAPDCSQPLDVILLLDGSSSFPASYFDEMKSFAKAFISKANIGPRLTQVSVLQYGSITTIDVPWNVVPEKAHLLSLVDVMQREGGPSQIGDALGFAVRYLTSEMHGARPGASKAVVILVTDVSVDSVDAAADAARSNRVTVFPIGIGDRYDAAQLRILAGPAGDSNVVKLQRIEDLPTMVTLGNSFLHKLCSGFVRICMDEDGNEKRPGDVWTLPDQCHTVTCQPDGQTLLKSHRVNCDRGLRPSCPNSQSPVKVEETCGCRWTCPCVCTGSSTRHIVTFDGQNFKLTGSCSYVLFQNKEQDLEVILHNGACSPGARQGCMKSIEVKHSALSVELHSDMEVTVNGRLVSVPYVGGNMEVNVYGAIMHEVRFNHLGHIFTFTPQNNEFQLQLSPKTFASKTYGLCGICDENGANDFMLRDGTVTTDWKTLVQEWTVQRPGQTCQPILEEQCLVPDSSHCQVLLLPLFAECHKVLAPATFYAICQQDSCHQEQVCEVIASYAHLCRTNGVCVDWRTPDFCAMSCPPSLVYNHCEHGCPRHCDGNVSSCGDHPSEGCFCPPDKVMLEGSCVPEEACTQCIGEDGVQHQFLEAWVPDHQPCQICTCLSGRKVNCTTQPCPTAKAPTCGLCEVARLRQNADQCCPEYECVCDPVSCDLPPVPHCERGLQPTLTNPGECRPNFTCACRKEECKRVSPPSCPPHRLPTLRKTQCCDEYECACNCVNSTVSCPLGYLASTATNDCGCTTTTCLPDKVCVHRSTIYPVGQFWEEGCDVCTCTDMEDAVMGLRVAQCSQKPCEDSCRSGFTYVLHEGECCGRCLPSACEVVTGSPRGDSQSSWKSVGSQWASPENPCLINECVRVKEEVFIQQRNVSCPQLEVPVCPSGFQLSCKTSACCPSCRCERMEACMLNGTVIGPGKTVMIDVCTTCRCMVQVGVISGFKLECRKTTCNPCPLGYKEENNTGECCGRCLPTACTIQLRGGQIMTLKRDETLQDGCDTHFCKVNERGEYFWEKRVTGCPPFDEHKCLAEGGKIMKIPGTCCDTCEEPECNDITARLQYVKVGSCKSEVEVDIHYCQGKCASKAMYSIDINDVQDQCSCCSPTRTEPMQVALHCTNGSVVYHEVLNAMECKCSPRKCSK

B1: Phosphorylase b (enzyme, rabbit, UniProt P00489 1-843, looked up)
chain: MSRPLSDQEKRKQISVRGLAGVENVTELKKNFNRHLHFTLVKDRNVATPRDYYFALAHTVRDHLVGRWIRTQQHYYEKDPKRIYYLSLEFYMGRTLQNTMVNLALENACDEATYQLGLDMEELEEIEEDAGLGNGGLGRLAACFLDSMATLGLAAYGYGIRYEFGIFNQKICGGWQMEEADDWLRYGNPWEKARPEFTLPVHFYGRVEHTSQGAKWVDTQVVLAMPYDTPVPGYRNNVVNTMRLWSAKAPNDFNLKDFNVGGYIQAVLDRNLAENISRVLYPNDNFFEGKELRLKQEYFVVAATLQDIIRRFKSSKFGCRDPVRTNFDAFPDKVAIQLNDTHPSLAIPELMRVLVDLERLDWDKAWEVTVKTCAYTNHTVLPEALERWPVHLLETLLPRHLQIIYEINQRFLNRVAAAFPGDVDRLRRMSLVEEGAVKRINMAHLCIAGSHAVNGVARIHSEILKKTIFKDFYELEPHKFQNKTNGITPRRWLVLCNPGLAEIIAERIGEEYISDLDQLRKLLSYVDDEAFIRDVAKVKQENKLKFAAYLEREYKVHINPNSLFDVQVKRIHEYKRQLLNCLHVITLYNRIKKEPNKFVVPRTVMIGGKAAPGYHMAKMIIKLITAIGDVVNHDPVVGDRLRVIFLENYRVSLAEKVIPAADLSEQISTAGTEASGTGNMKFMLNGALTIGTMDGANVEMAEEAGEENFFIFGMRVEDVDRLDQRGYNAQEYYDRIPELRQIIEQLSSGFFSPKQPDLFKDIVNMLMHHDRFKVFADYEEYVKCQERVSALYKNPREWTRMVIRNIATSGKFSSDRTIAQYAREIWGVEPSRQRLPAPDEKIP
Take B1: the binding result was “binds”.

The record behind these values is article PMC2113082 (The Journal of Cell Biology, 1984).
